Each block holds one binder with its values, some of them ahead of it.
Experiments:
Assay in all cases: SPOT array
[1] = biological target: Sho1 SH3 (SHO1_YEAST), P40073
[2] = biological target: T1, Boi1 SH3 (BOI1_YEAST), P38041
T1 chain: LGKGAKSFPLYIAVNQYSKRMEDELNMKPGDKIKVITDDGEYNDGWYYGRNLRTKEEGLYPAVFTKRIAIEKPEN

[3] = biological target: T2, Myo5 SH3 (MYO5_YEAST), Q04439
T2 chain: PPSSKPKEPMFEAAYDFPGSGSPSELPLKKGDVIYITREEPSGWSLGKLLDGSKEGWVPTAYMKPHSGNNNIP

[4] = biological target: T3, Boi2 SH3 (BOI2_YEAST), P39969
T3 chain: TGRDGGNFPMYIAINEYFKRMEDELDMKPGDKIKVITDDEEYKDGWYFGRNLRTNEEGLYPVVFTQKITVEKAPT

[5] = biological target: T4, Yhr016c SH3 (YSC84_YEAST), P32793
T4 chain: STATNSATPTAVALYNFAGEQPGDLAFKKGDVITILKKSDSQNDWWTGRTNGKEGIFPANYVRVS

[6] = biological target: T5, Rvs167 SH3 (RV167_YEAST), P39743
T5 chain: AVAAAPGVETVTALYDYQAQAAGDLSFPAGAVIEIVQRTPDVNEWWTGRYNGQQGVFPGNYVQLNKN

[7] = biological target: T6, Yfr024 SH3 (LSB3_YEAST), P43603
T6 chain: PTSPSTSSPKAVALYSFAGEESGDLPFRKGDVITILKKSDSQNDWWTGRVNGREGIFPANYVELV

Sequence of Sho1 SH3 (SHO1_YEAST), P40073 (P40073 295-366): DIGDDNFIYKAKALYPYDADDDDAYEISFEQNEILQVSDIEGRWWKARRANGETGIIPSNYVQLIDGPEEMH

B1: YHR209W 243-256 (peptide)
chain: TSWARDNPSKPDIA
normalised SPOT signal, Boehringer light units (BLU); mean over the file's lines of this peptide [1]: 40.9 | normalised SPOT signal, Boehringer light units (BLU); mean over the file's lines of this peptide [2]: 82.3 | normalised SPOT signal, Boehringer light units (BLU); mean over the file's lines of this peptide [3]: 81.6 | normalised SPOT signal, Boehringer light units (BLU); mean over the file's lines of this peptide [4]: 20.3 | normalised SPOT signal, Boehringer light units (BLU); mean over the file's lines of this peptide [5]: 49.1 | normalised SPOT signal, Boehringer light units (BLU); mean over the file's lines of this peptide [6]: 34.6 | normalised SPOT signal, Boehringer light units (BLU); mean over the file's lines of this peptide [7]: 260

B2: YLR337C 365-378 (peptide)
chain: TNSVKATPVPPTLA
normalised SPOT signal, Boehringer light units (BLU); mean over the file's lines of this peptide [1]: 50.1 | normalised SPOT signal, Boehringer light units (BLU); mean over the file's lines of this peptide [2]: 53.6 | normalised SPOT signal, Boehringer light units (BLU); mean over the file's lines of this peptide [3]: 168 | normalised SPOT signal, Boehringer light units (BLU); mean over the file's lines of this peptide [4]: 2.7 | normalised SPOT signal, Boehringer light units (BLU); mean over the file's lines of this peptide [5]: 23.7 | normalised SPOT signal, Boehringer light units (BLU); mean over the file's lines of this peptide [6]: 34.8 | normalised SPOT signal, Boehringer light units (BLU); mean over the file's lines of this peptide [7]: 7.5

B3: YML020W 26-39 (peptide)
chain: TQSGRMGPSEPKHR
normalised SPOT signal, Boehringer light units (BLU); mean over the file's lines of this peptide [1]: 78.4 | normalised SPOT signal, Boehringer light units (BLU); mean over the file's lines of this peptide [2]: 728 | normalised SPOT signal, Boehringer light units (BLU); mean over the file's lines of this peptide [3]: 456 | normalised SPOT signal, Boehringer light units (BLU); mean over the file's lines of this peptide [4]: 34.4 | normalised SPOT signal, Boehringer light units (BLU); mean over the file's lines of this peptide [5]: 109 | normalised SPOT signal, Boehringer light units (BLU); mean over the file's lines of this peptide [6]: 336 | normalised SPOT signal, Boehringer light units (BLU); mean over the file's lines of this peptide [7]: 637

B4: YDR103W 267-280 (peptide)
chain: TPQSRFPPYSPLLP
normalised SPOT signal, Boehringer light units (BLU); mean over the file's lines of this peptide [1]: 34.7 | normalised SPOT signal, Boehringer light units (BLU); mean over the file's lines of this peptide [2]: 57.1 | normalised SPOT signal, Boehringer light units (BLU); mean over the file's lines of this peptide [3]: 443 | normalised SPOT signal, Boehringer light units (BLU); mean over the file's lines of this peptide [4]: 7.5 | normalised SPOT signal, Boehringer light units (BLU); mean over the file's lines of this peptide [5]: 34.2 | normalised SPOT signal, Boehringer light units (BLU); mean over the file's lines of this peptide [6]: 28 | normalised SPOT signal, Boehringer light units (BLU); mean over the file's lines of this peptide [7]: 33.7

B5: YOR097C 144-157 (peptide)
chain: TSSLRKPPNGPSSV
normalised SPOT signal, Boehringer light units (BLU); mean over the file's lines of this peptide [1]: 99 | normalised SPOT signal, Boehringer light units (BLU); mean over the file's lines of this peptide [2]: 29.2 | normalised SPOT signal, Boehringer light units (BLU); mean over the file's lines of this peptide [3]: 144 | normalised SPOT signal, Boehringer light units (BLU); mean over the file's lines of this peptide [4]: 17.3 | normalised SPOT signal, Boehringer light units (BLU); mean over the file's lines of this peptide [5]: 37.6 | normalised SPOT signal, Boehringer light units (BLU); mean over the file's lines of this peptide [6]: 455 | normalised SPOT signal, Boehringer light units (BLU); mean over the file's lines of this peptide [7]: 121

B7: YPR052C 11-24 (peptide)
chain: TTRKKKDPNAPKRA
normalised SPOT signal, Boehringer light units (BLU); mean over the file's lines of this peptide [1]: 108 | normalised SPOT signal, Boehringer light units (BLU); mean over the file's lines of this peptide [2]: 416 | normalised SPOT signal, Boehringer light units (BLU); mean over the file's lines of this peptide [3]: 275 | normalised SPOT signal, Boehringer light units (BLU); mean over the file's lines of this peptide [4]: 40.3 | normalised SPOT signal, Boehringer light units (BLU); mean over the file's lines of this peptide [5]: 54 | normalised SPOT signal, Boehringer light units (BLU); mean over the file's lines of this peptide [6]: 78.7 | normalised SPOT signal, Boehringer light units (BLU); mean over the file's lines of this peptide [7]: 388

B10: YIR019C 265-278 (peptide)
chain: TSSTKEKPTPPTTT
normalised SPOT signal, Boehringer light units (BLU); mean over the file's lines of this peptide [1]: 21 | normalised SPOT signal, Boehringer light units (BLU); mean over the file's lines of this peptide [2]: 0 | normalised SPOT signal, Boehringer light units (BLU); mean over the file's lines of this peptide [3]: 118 | normalised SPOT signal, Boehringer light units (BLU); mean over the file's lines of this peptide [4]: 0.9 | normalised SPOT signal, Boehringer light units (BLU); mean over the file's lines of this peptide [5]: 29.7 | normalised SPOT signal, Boehringer light units (BLU); mean over the file's lines of this peptide [6]: 34.3 | normalised SPOT signal, Boehringer light units (BLU); mean over the file's lines of this peptide [7]: 58.6

B11: YDR515W 74-87 (peptide)
chain: TSNTKWTPITPSVI
normalised SPOT signal, Boehringer light units (BLU); mean over the file's lines of this peptide [1]: 18.6 | normalised SPOT signal, Boehringer light units (BLU); mean over the file's lines of this peptide [2]: 29.7 | normalised SPOT signal, Boehringer light units (BLU); mean over the file's lines of this peptide [3]: 142 | normalised SPOT signal, Boehringer light units (BLU); mean over the file's lines of this peptide [4]: 6.7 | normalised SPOT signal, Boehringer light units (BLU); mean over the file's lines of this peptide [5]: 21 | normalised SPOT signal, Boehringer light units (BLU); mean over the file's lines of this peptide [6]: 35 | normalised SPOT signal, Boehringer light units (BLU); mean over the file's lines of this peptide [7]: 36.9

B15: YOR227W 765-778 (peptide)
chain: TSGYKYFPQFPQLK
normalised SPOT signal, Boehringer light units (BLU); mean over the file's lines of this peptide [1]: 36.2 | normalised SPOT signal, Boehringer light units (BLU); mean over the file's lines of this peptide [2]: 95.1 | normalised SPOT signal, Boehringer light units (BLU); mean over the file's lines of this peptide [3]: 235 | normalised SPOT signal, Boehringer light units (BLU); mean over the file's lines of this peptide [4]: 32.8 | normalised SPOT signal, Boehringer light units (BLU); mean over the file's lines of this peptide [5]: 20.3 | normalised SPOT signal, Boehringer light units (BLU); mean over the file's lines of this peptide [6]: 58.8 | normalised SPOT signal, Boehringer light units (BLU); mean over the file's lines of this peptide [7]: 134

B16: YEL050C 91-104 (peptide)
chain: TQMKRLKPVSPGLR
normalised SPOT signal, Boehringer light units (BLU); mean over the file's lines of this peptide [1]: 417 | normalised SPOT signal, Boehringer light units (BLU); mean over the file's lines of this peptide [2]: 2890 | normalised SPOT signal, Boehringer light units (BLU); mean over the file's lines of this peptide [3]: 1450 | normalised SPOT signal, Boehringer light units (BLU); mean over the file's lines of this peptide [4]: 1140 | normalised SPOT signal, Boehringer light units (BLU); mean over the file's lines of this peptide [5]: 634 | normalised SPOT signal, Boehringer light units (BLU); mean over the file's lines of this peptide [6]: 1960 | normalised SPOT signal, Boehringer light units (BLU); mean over the file's lines of this peptide [7]: 4080

Results, then the binder that gave them:

normalised SPOT signal, Boehringer light units (BLU); mean over the file's lines of this peptide [1]: 57.7 | normalised SPOT signal, Boehringer light units (BLU); mean over the file's lines of this peptide [2]: 63 | normalised SPOT signal, Boehringer light units (BLU); mean over the file's lines of this peptide [3]: 161 | normalised SPOT signal, Boehringer light units (BLU); mean over the file's lines of this peptide [4]: 27.3 | normalised SPOT signal, Boehringer light units (BLU); mean over the file's lines of this peptide [5]: 27.4 | normalised SPOT signal, Boehringer light units (BLU); mean over the file's lines of this peptide [6]: 203 | normalised SPOT signal, Boehringer light units (BLU); mean over the file's lines of this peptide [7]: 91.6
B6: YJR038C 2-15 (peptide)
chain: TTNSRLSPSSPSSS

normalised SPOT signal, Boehringer light units (BLU); mean over the file's lines of this peptide [1]: 416 | normalised SPOT signal, Boehringer light units (BLU); mean over the file's lines of this peptide [2]: 418 | normalised SPOT signal, Boehringer light units (BLU); mean over the file's lines of this peptide [3]: 620 | normalised SPOT signal, Boehringer light units (BLU); mean over the file's lines of this peptide [4]: 23.6 | normalised SPOT signal, Boehringer light units (BLU); mean over the file's lines of this peptide [5]: 65 | normalised SPOT signal, Boehringer light units (BLU); mean over the file's lines of this peptide [6]: 269 | normalised SPOT signal, Boehringer light units (BLU); mean over the file's lines of this peptide [7]: 969
B8: YDR310C 200-213 (peptide)
chain: TSSSRRGPGRPRKD

normalised SPOT signal, Boehringer light units (BLU); mean over the file's lines of this peptide [1]: 6.1 | normalised SPOT signal, Boehringer light units (BLU); mean over the file's lines of this peptide [2]: -0 | normalised SPOT signal, Boehringer light units (BLU); mean over the file's lines of this peptide [3]: 1680 | normalised SPOT signal, Boehringer light units (BLU); mean over the file's lines of this peptide [4]: 20.8 | normalised SPOT signal, Boehringer light units (BLU); mean over the file's lines of this peptide [5]: 185 | normalised SPOT signal, Boehringer light units (BLU); mean over the file's lines of this peptide [6]: 80 | normalised SPOT signal, Boehringer light units (BLU); mean over the file's lines of this peptide [7]: 141
B9: YOR181W 179-192 (peptide)
chain: TTKHKAPPPPPPTA

normalised SPOT signal, Boehringer light units (BLU); mean over the file's lines of this peptide [1]: 60.1 | normalised SPOT signal, Boehringer light units (BLU); mean over the file's lines of this peptide [2]: 17200 | normalised SPOT signal, Boehringer light units (BLU); mean over the file's lines of this peptide [3]: 232 | normalised SPOT signal, Boehringer light units (BLU); mean over the file's lines of this peptide [4]: 32.4 | normalised SPOT signal, Boehringer light units (BLU); mean over the file's lines of this peptide [5]: 159 | normalised SPOT signal, Boehringer light units (BLU); mean over the file's lines of this peptide [6]: 410 | normalised SPOT signal, Boehringer light units (BLU); mean over the file's lines of this peptide [7]: 3700
B12: YOR042W 151-164 (peptide)
chain: TQPVRKNPEAPARR

normalised SPOT signal, Boehringer light units (BLU); mean over the file's lines of this peptide [1]: 106 | normalised SPOT signal, Boehringer light units (BLU); mean over the file's lines of this peptide [2]: 424 | normalised SPOT signal, Boehringer light units (BLU); mean over the file's lines of this peptide [3]: 999 | normalised SPOT signal, Boehringer light units (BLU); mean over the file's lines of this peptide [4]: 13 | normalised SPOT signal, Boehringer light units (BLU); mean over the file's lines of this peptide [5]: 19.6 | normalised SPOT signal, Boehringer light units (BLU); mean over the file's lines of this peptide [6]: 141 | normalised SPOT signal, Boehringer light units (BLU); mean over the file's lines of this peptide [7]: 341
B13: YBR089C-A 17-30 (peptide)
chain: TTRRKKDPNAPKRR

normalised SPOT signal, Boehringer light units (BLU); mean over the file's lines of this peptide [1]: 29.1 | normalised SPOT signal, Boehringer light units (BLU); mean over the file's lines of this peptide [2]: 95.3 | normalised SPOT signal, Boehringer light units (BLU); mean over the file's lines of this peptide [3]: 194 | normalised SPOT signal, Boehringer light units (BLU); mean over the file's lines of this peptide [4]: -0 | normalised SPOT signal, Boehringer light units (BLU); mean over the file's lines of this peptide [5]: 19 | normalised SPOT signal, Boehringer light units (BLU); mean over the file's lines of this peptide [6]: 8.5 | normalised SPOT signal, Boehringer light units (BLU); mean over the file's lines of this peptide [7]: 20.2
B14: YDR109C 25-38 (peptide)
chain: TSISRISPQDPEAK

Source: PMC314469, “Protein Interaction Networks by Proteome Peptide Scanning” (PLoS Biology, 2004)
